{
  "source": "the DeepSol protein solubility set",
  "data": [
    {"test": "soluble on expression in E. coli; label from the status in PepcDB or PDB records", "values": [
      {"sequence": "MEILASRMLLRPADYQRSLSFYRDQIGLAIAREYGAGTVFFAGQSLLELAGYGEPDHSRGPFPGALWLQVRDLEATQTELVSRGVSIAREPRREPWGLHEMHVTDPDGITLIFVEVPEGHPLRTDTRA", "soluble on expression in E. coli": "soluble"},
      {"sequence": "MGHGEEPLTATYKTQRPPWIGLWSDREYKGRADWWKEPGLEDSVTRSGKLRLYRARFREEDPDWYDPKVKDGESLAGPFGLDSKKTKNLTKKGDQPGELSEFQNKVYEGSHQFKAIAEKFGISKEHPGLSVSPTLSDNMLTPKDELGRNAVLPNSWYPAGPRFFDSPLNEGSFWKGLAAAKYAGILLAPYTMLEIRALNTVSVSEFSPRTYMKRYLQLAPFPLAVAFAWGFSLSAASSIRHKDDVHNHWFASVAVGSTVATMKSNVALGTTAAIFTAILGAFWQYQRHSETGLQGMTAHPQSAGIWGGPLLWQKMQLGNADVPTTRY", "soluble on expression in E. coli": "not soluble"},
      {"sequence": "MSLRSYDGQLVYNPVEENGVMVGQTVYKMNGSTLANYMKYNYKYDDNKRMIESETLKWNSTKEEWEKDLRINYTYEGKTVTTNYYKWNNKKRAYVLVPEMTVTMDNTNEGHHHHHH", "soluble on expression in E. coli": "soluble"},
      {"sequence": "MTNFQRARSEEQRAVRRQAILDTTAAMLEEMPVGEVSLNELSRRVGLAKSNVLRYFESREAILLELLDRAWQQWVADLPALVHAGVDQGAPVSRRAEQFAAVIAASLAGRQVLCDLLSAQAGVLEHNVSPQVAARYKRAAVANVADIAALAHQHLPELGASAPQLTAVMIMAVGAVWTHARPSPAMLSAYEADPSLTAFKLDFVTTLQEMLATLTAGTIARESA", "soluble on expression in E. coli": "not soluble"},
      {"sequence": "CHAINAAGKKVLIVYAHQEPKSFNGSLKNVAVDELSRQGCTVTVSDLYAMNFEPRATDKDITGTLSNPEVFNYGVETHEAYKQRSLASDITDEQKKVREADLVIFQFPLYWFSVPAILKGWMDRVLCQGFAFDIPGFYDSGLLQGKLALLSVTTGGTAEMYTKTGVNGDSRYFLWPLQHGTLHFCGFKVLAPQISFAPEIASEEERKGMVAAWSQRLQTIWKEEPIPCTAHWHFGQ", "soluble on expression in E. coli": "soluble"},
      {"sequence": "GAMTKPRFTTGLVYDTLMLKHQCTAGSSSSHPEHAGRIQSIWSRLQETGLRGKCEAIRGRKATLEELQTVHSEAHTLLYGTNPLNRQKLDSKKLLGSLASVFVRLPCGGVGVDSDTIWNEVHSAGAARLAVGCVVELVFKVATGELKNGFAVVRPPGHHAEESTPMGFCYFNSVAVAAKLLQQRLSVSKILIVDWDVHHGNGTQQAFYSDPSVLYMSLHRYDDGNFFPGSGAPDEVGTGPGVGFNVNMAFTGGLDPPMGDAEYLAAFRTVVMPIASEFAPDVVLVSSGFDAVEGHPTPLGGYNLSARCFGYLTKQLMGLAGGRIVLALEGGYDLTAICDASEACVSALLGNELDPLPEKVLQQRPNANAVRSMEKVMEIHSKYWRCLQRTTSTAGRSLIEAQTCENEEAETVT", "soluble on expression in E. coli": "soluble"},
      {"sequence": "MSCRFYQHKFPEVEDVVMVNVRSIQEMGAYVSLLEYNNIEGMIHLSELSRRRIRSINKLIRIGRNECVKVIRVDKEKGYIDLSKRRVSPEEAIKCEDKFTKSKTVYSILRHVAEVLEYTKDEQLESLFQRTAWVFDDKYKRPGYGAYDAFKHAVSDPSILDSLDLNEDEREVLINNINRRLTPQAVKIRADIEVACYGYEGIDAVKEALRAGLNCSTENMPIKINLIAPPRYVMTTTTLERTEGLSVLSQAMAVIKEKIEEKRGVFNVQMEPKVVTDTDETELARQMERLERENAEVDGDLEHHHHHH", "soluble on expression in E. coli": "soluble"},
      {"sequence": "MAKTKDKSIFVSSVDSDSDIEEIIMPPKPPVEVIQLDDSDDECQDICKPIYNKKVHKDPIVRVSYRQRIPESYFPGISTSLINVQREHNNRSKYDTWGSNSCSEPRISISNIERLEKPSYHEARRVPVFERLERSREISNGRNNQNPIRFNHKFVPPINRQTPLFNNQQLLVNVPFNEHHPTFLEPRPFYRSNVNEYNAGGLNRGSFRKMGRLNMEIVRDNDDFEEHFLAPNFPAKSASIDRRVDDSLSSNSYLRSGMIMASSERLEDPRFSGRLPVFARQINNQEINNDNFYQNSICYNHNNYPSNLESRVSFPFEARHHDADGLNRGRYQVMEHVNMGIMRNSEDFEDYDITQTDQDNHFYNDKDSGKHHRHRHRSKNNKKHKKHYDRNESGNSSECREEDDYEISNPSEKRHERKKRQRSSHRKESACVDEDNYILDEDRFYQQESDEYHNSLEMEREYEHGMDVGVKKEHSYKCDDIARNARKRARLTDDDMARREELFKEWSYSKEIVDGVTQLFGGPPRESERHQKKQKELVFEADRTAMHALSIRSGALVKARLLEIHYATGCHLIFLEEVKRGGYTYVELKGDPEHIKNAQKMIDDMVIDEHYIHDGRESIVYFYNAPHELRNTRGFDLNCRSIEKYCGIIIEKMREVFGIGGYVSTAPLKLTGSVNSIHMARETMQSKTKRFLDEEKFKETVEHCTPISFYRKIIGRCGENLKTIEKVTRTAIVFKRSFDNNEACFSIRGRTDNIKQAIEKIEEITHENQPADDDPGIFQVRVPENMVARLIGRHGVEINRIRSESKAKCYLNAIRGNLDDKFMVCSGGVEEAAYAAYLTKVKIGIIDPKVIQFNSDDFNNLSKVKPMEDPRLVMLKKRYAERKECK", "soluble on expression in E. coli": "soluble"},
      {"sequence": "SDTMKVETIGKEIIKPSATTPTDLSTLQLSIMDILMPPVYAVAFLFYTKDDLISQEQTSHTLKTSLSEILTKFHPLAGRVNGVTIKSTDEGAVFVEARVDNCDLSGFLRSPDTESLKQLLPVDDEPAPTWPLLLVKATYFRCGGMAIGLCISHRLADAASLSIFLQAWAATARGESDLVASPDFCSTKLYPAANEAIKIPGEVVNRTSVTKRFVFVASKIEELRNKVASDVVPRPTRVQSVTSLIWKCVVTASTDTIREKALFQPANLRTKIPSLLSENQIGNLLFNSLILDGKAGMDIVETVKELQKRAEDLSGLVQDEEGSSMTIGWRLFGEIINSKFNREDHDMHSVTSWCKIPLYDACFGWGSPVWVAGSVSPNLDYVTVLIDSKDGQGIEAWVTLPQENMLLLEQSTELLAFASPNPSVLI", "soluble on expression in E. coli": "soluble"},
      {"sequence": "MELLQGKTFVVMGVANQRSIAWGIARSLHNAGAKLIFTYAGERLERNVRELADTLEGQESLVLPCDVTNDEELTACFETIKQEVGTIHGVAHCIAFANRDDLKGEFVDTSRDGFLLAQNISAFSLTAVAREAKKVMTEGGNILTLTYLGGERVVKNYNVMGVAKASLEASVKYLANDLGQHGIRVNAISAGPIRTLSAKGVGDFNSILREIEERAPLRRTTTQEEVGDTAVFLFSDLARGVTGENIHVDSGYHILG", "soluble on expression in E. coli": "soluble"},
      {"sequence": "IKNFSYGVKFVLSDAQQKILKYNNPDKSLSNPYYEGQKLGEIWGYKTIGIAQSDEEMNQHLANAKQPMGQKWAAGDIMYADLDNSGSVDQGNYKVGDSGDWQIIGNNTPRFNYGITIDAAWKGLDFRAFVQGIGKRDYWLNGPYFWGFSGGGEWASAGFKEHWDFWRPEGDPLGANTNSYFARVIRGTSKNQQRQTRYLQDASYWRLKNIQIGYTLPKVWTKKAGMESVRVYVSGDNLLTVSDITGVFDPENLGTQWTDPGKVYPLQKVIAIGLTVNF", "soluble on expression in E. coli": "not soluble"},
      {"sequence": "MVSVSSEPVMPTALKILIAGGFGVGKTTMVGSVSEVPPLETEERMTAVSLGVDDLSGVEGKKSTTVAMDFGRITIAPELVLYLFGTPGQDRFWFMWDDLATGALAAIVLADTRRLDASFASIDFFEARDIPFAVGVNCFDGRRDCSAEQVRTALDLDPSTPVLLCDVRDRGSSKSVLLAVLEAARAQAAARLAPLGGGQLEHHHHHH", "soluble on expression in E. coli": "not soluble"},
      {"sequence": "MSLNRPAPVEISYENMRFLITHNPTNATLNKFTEELKKYGVTTLVRVCDATYDKAPVEKEGIHVLDWPFDDGAPPPNQIVDDWLNLLKTKFREEPGCCVAVHCVAGLGRAPVLVALALIECGMKYEDAVQFIRQKRRGAFNSKQLLYLEKYRPKMRLRFRDTNGEGHHHHHH", "soluble on expression in E. coli": "soluble"},
      {"sequence": "MSLAPRQVNCILRTNEHTQEFFGGSVKSYDSNQLASNSPIEDSRSEASCVHTSGLLLGIFDGHGGPACSQVISKRLMRYIAASLVPPDDLRQHVLNGAQSFSFLSCHNDKARCGYEIKELYEKSFHQFANELTNTTLAGFQMHQTLENAFIRLDQDLSREAIEMPSLRTMSVAMSGAVALVAHIDGPHLHVASVGDCSAVLGTVTDTGQWMAKKLTNEHNSDNVGEVRRLLSEHPATERDTVIRGERLLGQLAPLRAMGDFRYKWSREQLEQLVVPQFGEQVIAPYYLTPPYLSACPEITHHILTPRDKFLIIASDGLWDTMSAMQTVHLVGEHMYGKAFLQPLTLPKQDITLGEISQMLTTRKAGLQKKPLDRNAATHLIRNALGGTEYGVEHSKLSHMLSLPQDIVRLFRDDITITVVYFDSEYLEGHHHHHH", "soluble on expression in E. coli": "not soluble"},
      {"sequence": "MYQQSSFKENLIHWFDENQREMPWRQTTNPYYIWLSEVMLQQTQVKTVIDYYHRFVERFPTVEVLSQASEDEVLKYWEGLGYYSRARNFHTAIKEVHDKYEGLVPKDPDQFKALKGVGPYTQAAVMSIAYNVPLATVDGNVFRVWSRLNDDYRDIKLQSTRKSYEQELLPYVTTEAGTFNQAMMELGALICTPKNPLCLFCPVQENCEAFDKGTFEKLPVKSKNVSKKVIEQSVFLIRNNQGQYLLQKRSEKLLHGMWQFPMFESEHARRKMTEKIGHDIQPVETPIFELKHQFTHLTWKIKVYAVSGAINIETLPDDMIWFDLSDRDQYTFPVPMSKIYQFING", "soluble on expression in E. coli": "not soluble"},
      {"sequence": "MGSDKIHHHHHHGQNQNKIQEAMANYDYETAVELINKEPPTIPLLMQKAKALKGIGSNAEALRSIRQVIAEDSTNQQAHIEAAECCKAMAKYNDALDYYRKAISLNPKNKYARLQFINLLCNTKNYAEAFGESSMMSETDSSAVVLHLQAQSLEGMQQILPAIGCYEVIQDKYPDDYLAAAKLGNLNIVAGYPEYAIQATERYRERDSTNLIVNQQNALAYCHAEQYPTAIKRYEKLCQQGDSSTQTLYYLGVSYYADEYYYEAHACFSKLQKEMEENPNLLYYLGRCCAKTSWKKEGIEHLEKAIELTIPKDSTMIRLYKGLVDCCKLAQDTPKQIQALRELYKYDKTNHKLLYDIAWNYSYQLKDNKSAERYLQAFLKTRKANARKEEPVSEKGELVLGLENYYNAAENWLKDLQKEKFFKEGIPLESQKQ", "soluble on expression in E. coli": "not soluble"},
      {"sequence": "GMMVPHLTTALTGPLLTLEKRLLDNMPRIEHWFRSQWQEYGAPFYASVDLRNAGFKLAPVDTNLFPGGFNNLNPDFLPLCIQAAMVAVEKICPDARRLLLIPENHTRNTFYLRNVHALTHILRQAGLEVRIGSIAPEITAPTFLETHDGHSILLEPVRRKANRLELDNFDSCAILLNNDLSGGIPDILQGLEQSLIPPLHAGWATRRKSNHFTAYDRVVEEFAPLIDIDPWLLNPYFDTCGGLDFHARLGEEQLAEKVDSLLAKIRRKYAEYGVKQEPFVIVKADAGTYGMGIMTVKSADDVRDLNRKQRNKMSVVKEGLKVSEVILQEGVYTFEHLKDAVAEPVIYMMDHFVVGGFYRVHTSRGADENLNAPGMHFEPLTFETPCSTPDCAGAPDAAPNRFYAYGVVARLALLAATIELQETDPDLLDERT", "soluble on expression in E. coli": "soluble"},
      {"sequence": "MSLDVDLAPPGPLAAGGLRVTALGGISEIGRNMTVFEHLGRLLIIDCGVMFPTHDEPGVDLILPDLRHIEDRLDDIEALVLTHAHEDHIGGIPYLLKLRPDIPVVGSKFTLALVAAKCREHRLKPVFVEVSEGHKSTHGVFECEYFAVNHSIPDALAIAVHTGAGTVLHTGDIKLDQLPLDGRPTDLPGMSRLGDAGVDLFLCDSTNAELPGVGPSESEVGPTLHRLIRGAEGRVIVACFASNVDRVQQIIDAAVALGRRVSFVGRSMVRNMGIARELGFLRVADADVIDIGAAELMPPERVVLITTGTQGEPMSALSRMSRGEHRSITLTAGDLVVLASSLIPGNEEAVYGVIDELAKIGARVVTNAQARVHVSGHAYAGELLFLYNGVRPRHVMPVHGTWRMLRANSKLAARTGVPEESILLAENGVSVDLVAGRASISGAVPVGKMFVDGLVDGDVGDITLGERLILSSGFVAVTVVVQRGTGRPVAPPHLHSRGFSEDPKALEPAVRRVEEELEALVAENITDPSRIAQGVRRTVGKWVGETYRRQPMIVPTVIEVEGHHHHHH", "soluble on expression in E. coli": "soluble"}
    ]}
  ]
}
